# B1: Pistol ribozyme (parent)
# chain: GGGUCGUUGUUCCAUAAUCGCGUGGAUAUGGCACGCAAGUUUCUACCGGGCACCGUAAAUGUCCGACUGGAGCCGUUCGGGCGGCUAUAAACAGACCUCAGGCCCGAAGCGUGGCGGCACCUGCCGCCGGUGGUAAAAAAGAUCGGAAGAGCACACGUCU
# Variants of: B1
# Experiment: aptazyme ON/OFF ratio, guanine; higher = stronger switching; co-transcriptional cleavage with and without guanine
row,Variant,aptazyme ON/OFF ratio
1,U7G U8G G9U U10G U11A C12U C13A,1.1
2,U8G U10A C13G,1.12
3,U7G G9C U10G U11G C13U,1.36
4,U7C U8G G9C U11G C12G C13G,1.1
5,U7A U8A U10C U11C,1.04
6,U7A U8G G9C C12A C13G,1.16
7,U7A G9A U10C C12U C13G,1.12
8,U7C U8G G9U U10G U11A C13G,1.08
9,U7C U10C U11C C12G C13U,1.24
10,U7G U8C G9U U10G C12A C13A,1.37
11,U7A G9U U10G U11A C13A,1.09
12,U8G G9C U10G U11G C12U C13U,1.28
13,U8C G9C U11C C12G C13A,1.2
14,U7G U8G G9C U10A U11G C13A,1.08
15,U7C U8C G9A U10C U11C C12U C13G,1.24
16,U7G U8G U11C C13G,1.27
17,U7A U8C G9U C12G C13G,1.16
18,U7A G9U U10C U11C C13U,1.02
19,U8G G9C U10C U11A C12G C13G,1.1
20,G9U U10G U11A C12G,2.23
21,U7G U8A U11G C12G,1.33
22,U7A U8G G9U U10C U11G C12G C13U,1.18
23,U7A U8C G9A U11A C12G C13G,1.21
24,U7G U8C G9A U10C C12A C13A,1.12

row,Variant,aptazyme ON/OFF ratio
1,U7A U8A G9U U10A C12A C13A,1.34
2,U7G G9C U10A U11G C12G C13G,1.08
3,U8C G9U U10G C12G,1.6
4,U7G U8A G9U U10A U11A C12G C13U,1.06
5,U7A U8C G9U U10A U11G C13A,1.17
6,G9A U10C U11A C12U C13U,1.22
7,U7A U8A U10C C13G,1.09
8,U7G G9C U10G C12U C13U,1.13
9,U7C G9U U10G C12U C13U,1.69
10,U7G U8C G9A U10A C12G,1.24
11,U8G G9C U10C U11C C12G C13U,1.08
12,U7A U8A G9A U10C U11A C12G,1.1
13,U7A U8A G9C U11C C12U C13U,1.08
14,U7C G9C U10A U11G C12U C13U,1.13
15,U7A G9U U10G U11G C12A,1.13
16,U7C U8C G9U U11A C12G C13G,1.16
17,U7G G9U U10C C12G,1.37
18,U7G G9C U10A U11A C12G C13U,1.27
19,U7C U8G G9A U10G U11A C13A,1.09
20,U7C U8G G9A U11A C13G,1.07
21,U7C U8G U10G U11C C13U,1.14
22,U7A U8C G9A U10A C12U C13U,1.12
23,U8A G9U U10G,1.61
24,U8C G9A U10A C12A C13U,1.31

row,Variant,aptazyme ON/OFF ratio
1,U8C G9A U11A C12G C13U,1.23
2,U7C G9C U10C C13G,1.04
3,U7G U8C G9U U10A U11C C12U C13G,1.25
4,U8A U10C U11C C12U C13A,1.05
5,U8G G9C U10C U11A C13A,1.09
6,U7C U8A G9C U10A C12U C13A,1.09
7,U7G U8A G9U U10A U11C C12A C13U,1.05
8,U7A U8C G9U U10G U11A,1.06
9,U7A U8A G9A U10G U11C C13A,1.08
10,U8A G9C,1.2
11,U7A U8A G9A C12U C13A,1.11
12,U8G G9U U11C C13G,1.03
13,U7G U8G G9A U10G U11G C12G C13A,1.23
14,U7G G9A U10C U11G C13G,1.17
15,U7C U8A G9U U10G U11G C12U C13U,1.3
16,U7G U8G U11G C13G,1.39
17,U7A U8G G9C U10A U11A C12G C13G,1.36
18,U7G U8C G9C U11G C13U,1.25
19,U7G G9A U11A C12G C13U,1.12
20,U7G U8C U10C U11A C13A,1.18
21,U7C U8G G9A U10G U11A C12A,1.47
22,U7C U8A U11C C12U C13U,1.19
23,U7G U8A G9C U11G C13A,1.06
24,U7G U8A U10A U11C C12A C13A,1.26

row,Variant,aptazyme ON/OFF ratio
1,U7C G9A U10G U11G,1.09
2,U7G U10C U11A C12A C13A,1.17
3,U7G U8G G9U U10A U11G C12U C13G,1.11
4,U7C U10A U11C C12U C13G,1.07
5,U7G U8G G9C,4.59
6,U7G G9U U10A U11C,1.17
7,U7C G9A U10A U11G,1.27
8,U7G U8G G9U U10G U11G C12U C13A,1.11
9,U7G U8A G9C U10A U11A,1.09
10,U7A U8C G9A U10G U11A C12G C13A,1.11
11,U8C G9U U10G U11G C12A C13U,1.17
12,U7G U8A G9C U10A U11A C13A,1.05
13,G9A U10G U11G C12U C13U,1.55
14,U7C G9U U10C,2.79
15,U7A U8C G9U U11A C13A,1.13
16,U8A G9C U10G U11G C13A,1.23
17,U7C U8A U10G U11C,1.07
18,U8C U10A C12G C13G,1.14
19,U7G U8A G9A C13G,1.09
20,G9A U10A U11C C12A C13U,1.41
21,U7A U8G G9A U10G U11A C13U,1.03
22,U8C G9A U10C C12U C13U,1.21
23,G9A U10G U11G C12A C13G,1.13
24,U7G U8G G9U U10G U11A C12G C13A,1.08

row,Variant,aptazyme ON/OFF ratio
1,U7A U8C U10G C12A C13A,1.13
2,U7A U8G G9U C12G,1.64
3,U8G G9A U11C C13A,1.07
4,U7G U10C U11C,1.07
5,U10A U11C C12U C13A,1.06
6,U8G G9A U10A U11A C12G,1.28
7,U7A U8A G9U U10A U11A C12A C13G,1.2
8,U7G U8C G9U U11A C12G C13A,1.1
9,U7G U10G,1.42
10,U7A C13U,1.58
11,U7C U8C G9U U11C C12A C13U,1.14
12,U7A U10A U11G C12A C13A,1.17
13,U7G U8G G9U U10A U11G C12U,1.07
14,U7C U8A G9A U10C U11G C13U,1.1
15,U7A U8C G9C U11A C12A C13U,1.05
16,U7C U8C G9C U11G C13A,1.12
17,U7A U8G G9C U10G U11C C12U,1.07
18,U8C G9C U10A U11G C13U,1.13
19,U7G G9A U11C C12G C13G,1.07
20,G9C U10A U11C C12A C13A,1.3
21,U8A G9C U10A U11G C13U,1.18
22,U8A G9A C12U C13A,1.19
23,U8C U10A U11C C12G C13G,1.38
24,U7A U8G G9A U10G U11G C12U C13U,1.22

row,Variant,aptazyme ON/OFF ratio
1,U7A U8A G9A U10C U11G C12U,1.11
2,U8G G9A U11C C12G C13U,1.4
3,U7G U8C G9A U10C C12U C13U,1.08
4,U8C G9A U10G U11C C12U C13A,1.2
5,U7C U8A U10C U11C C12U C13A,1.06
6,U7G U8G G9A U10A U11A C12G,1.16
7,U8G U11C C12U,1.26
8,U7A U8C G9U U11A C12U C13G,1.22
9,U7A U8G G9U U11C C12G,1.26
10,U7G G9A U10C U11A C13U,1.19
11,U8C G9C U10C U11G C12U C13U,1.06
12,U7A G9U U10G U11A C12U C13U,1.26
13,U7A G9C U10C C13G,1.05
14,U7A U8A G9A U10C C12U C13G,1.15
15,G9U U10C C12G,2.12
16,U7G U8A U10A U11A C12G C13U,1.46
17,U7C U8A G9C U10A U11A C12A,1.16
18,U7A U8G G9A U11A C12G C13A,1.19
19,U7C U8A G9C U10C U11G C12G C13U,1.07
20,U7A U8A G9A U10C U11G C12A,1.12
21,U7G U8G G9A U11A C12G C13U,1.15
22,U8C U10A U11C C12G,1.17
23,U7C U8A G9C U10G U11C C13A,1.39
24,U8C G9A U11A C12A,1.25

row,Variant,aptazyme ON/OFF ratio
1,G9A U10C C12A C13U,1.19
2,U7A U8A U10A U11G C12A,1.09
3,U8C U10C C12A C13U,1.42
4,U7G U8G G9A U10C U11A C12U C13A,1.06
5,U7G U8G U10A U11C C12G C13A,1.16
6,U7G U8C G9U U10G U11G C12U,1.35
7,U7G U8A G9U U11G C13G,1.02
8,G9C U11C C12U C13A,1.09
9,U7A G9U U10G U11C C12U C13A,1.29
10,U7C U8A G9C C12G C13A,1.14
11,U7G U8G G9C U11G,2.2
12,U7A U8G U11G C12G C13A,1.15
13,U7C U10G U11G C12U C13U,1.3
14,U8A U10A U11G C12U C13A,1.2
15,U8G G9A U11A C12G C13A,1.08
16,U7A G9C U10A C12U C13U,1.12
17,U7C U8A G9A U10G U11G C12A C13A,1.19
18,U7G U8C G9C U10A U11A C12G C13G,1.11
19,U7C G9A C12A,1.33
20,U7G U8G G9C U11C C12A C13A,1.37
21,U8C U10C U11G C12U,1.39
22,U8G G9C U10A C13A,1.07
23,U7C U8A U10A,1.1

# From the RNAGym collection of RNA variant scans (doi:10.1021/acssynbio.7b00057)
